Laboratory results as given in patent US20050014224A1 (Pfizer, published 2005).
Each block holds one molecule with its values, some of them ahead of it.

B1: mouse GITR (glucocorticoid-induced TNF receptor) (receptor, UniProt O35714 20-228, looked up)
chain: QPSVVEEPGCGPGKVQNGSGNNTRCCSLYAPGKEDCPKERCICVTPEYHCGDPQCKICKHYPCQPGQRVESQGDIVFGFRCVACAMGTFSAGRDGHCRLWTNCSQFGFLTMFPGNKTHNAVCIPEPLPTEQYGHLTVIFLVMAACIFFLTTVQLGLHIWQLRRQHMCPRETQPFAEVQLSAEDACSFQFPEEERGEQTEEKCHLGGRWP
notes: whole, on cells; endogenous on mouse T cells and HT-2 cells in the functional assays; also called cell-surface GITR
B2: mouse GITRL expressed on cells (ligand)
chain: MEEMPLRESSPQRAERCKKSWLLCIVALLLMLLCSLGTLIYTSLKPTAIESCMVKFELSSSKWHMTSPKPHCVNTTSDGKLKILQSGTYLIYGQVIPVDKKYIKDNAPFVVQIYKKNDVLQTLMNDFQILPIGGVYELHAGDNIYLKFNSKDHIQKNNTYWGIILMPDLPFIS

How the values were obtained:
[1] = molecular target: mouse GITRL expressed on cells (mouse) (UniProt Q7TS55); test: flow cytometry on GITRL-Cos cells, FITC donkey antihuman antibody
[2] = molecular target: T1, control mouse IL-21 receptor fused to the FLAG epitope, expressed on Cos cells (mouse, UniProt Q9JHX3 20-529); test: cell-cell binding by flow cytometry (PE anti-FLAG / FITC anti-GITR)
T1 construct: whole, on cells; also called IL-21R-Flag-Cos
Text: Cell-cell interaction was detected by flow cytometry using phycoerythrin-labeled anti-Flag antibody (PE-FLAG) and fluorescein isothiocyanate (FITC)-labeled anti-GITR.

[3] = molecular target: B1; test: cell-based or functional assay

T1 sequence (Q9JHX3 20-529): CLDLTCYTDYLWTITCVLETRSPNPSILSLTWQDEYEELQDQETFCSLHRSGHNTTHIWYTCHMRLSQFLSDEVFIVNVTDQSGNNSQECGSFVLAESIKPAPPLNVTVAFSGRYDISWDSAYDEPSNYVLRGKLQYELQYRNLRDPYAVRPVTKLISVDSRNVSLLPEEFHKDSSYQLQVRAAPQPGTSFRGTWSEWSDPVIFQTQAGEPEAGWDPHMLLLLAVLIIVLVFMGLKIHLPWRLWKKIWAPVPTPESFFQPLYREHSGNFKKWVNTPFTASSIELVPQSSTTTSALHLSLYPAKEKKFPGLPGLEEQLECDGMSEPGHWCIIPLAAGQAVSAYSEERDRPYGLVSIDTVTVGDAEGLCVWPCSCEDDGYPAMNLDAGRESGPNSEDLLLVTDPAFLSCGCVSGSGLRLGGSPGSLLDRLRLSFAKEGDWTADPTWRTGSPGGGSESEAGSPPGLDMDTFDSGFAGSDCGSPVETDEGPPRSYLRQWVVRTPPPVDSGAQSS

- FITC-Ab binding [1]: 7.9%
Molecule: control human IgG (antibody)

- FITC-Ab binding [1]: 28.8%
- fold increase in FITC-Ab binding compared to control HIgG [1]: 3.6 fold
Molecule: recombinant GITR fused to the Fc portion of human IgG (Fc fusion)

Molecule: B1
- binding result [2]: no binding

Molecule: B2
- ^3H-thymidine incorporation of CD4^+CD25^+ T cells, fold increase over unmodified YB2/0 cells (˜50,000 cells) [3]: ~15 fold
